Test results: PMC4837182

Columns and labels:
[1] = target: recombinant Plasmodium falciparum Hsp70-1 (PfHsp70-1), full length (Plasmodium falciparum); assay: SPR; ProteOn XPR36, ligand amine-coupled to GLC chip, analyte 125-2000 nM at 50 μl/min, PBS-Tween with 20 mM EDTA pH 7.4, 25 °C, Langmuir fit; with 5 mM ATP
[2] = target: recombinant Plasmodium falciparum Hsp70-1 (PfHsp70-1), full length (Plasmodium falciparum); assay: SPR; ProteOn XPR36, ligand amine-coupled to GLC chip, analyte 125-2000 nM at 50 μl/min, PBS-Tween with 20 mM EDTA pH 7.4, 25 °C, Langmuir fit; no nucleotide
[3] = target: recombinant Plasmodium falciparum Hsp70-1 (PfHsp70-1), full length (Plasmodium falciparum); assay: SPR; ProteOn XPR36, ligand amine-coupled to GLC chip, analyte 125-2000 nM at 50 μl/min, PBS-Tween with 20 mM EDTA pH 7.4, 25 °C, Langmuir fit; with 5 mM ADP

- Kd [1]: 0.0241 µM
- koff [1]: 2.42e-05 s⁻¹
- kon [1]: 997 M⁻¹ s⁻¹
- Kd [2]: 59.8 µM
- koff [2]: 2.96e-05 s⁻¹
- kon [2]: 0.495 M⁻¹ s⁻¹
- Kd [3]: 12.1 µM
- koff [3]: 3.61e-05 s⁻¹
- kon [3]: 298 M⁻¹ s⁻¹
Substance: recombinant Plasmodium falciparum Hsp70-z (PfHsp70-z) (natural protein)
